Measured values as given in the nanobody polyreactivity screen of Harvey et al. (2022).

Assay: yeast display, Sf9 membrane polyspecificity reagent, FACS + sequencing; frameworks hold sequencing errors
Procedure, shortened: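 In a synthetic yeast display library (Saccharomyces cerevisiae BJ5465), nanobody expression was induced with galactose for 36–48 hours. FACS gates were set low and high (top ~1%) using anti-HA fluorescence for expression and streptavidin fluorescence for binding of the Sf9 membrane reagent. Each polyreactivity label is drawn from the gate of origin.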

Sequence	polyreactivity (PSR sort gate)
QVQLVESGGGLVQAGGSLRLSCAASGFIFSSYAMGWYRQATGKERELVATISWSGGSTYYADSVKGRFTISRDNAKNTVYLQMNSLKPEDTAVYYCAAGYQRYLQRPEFYYWGQGTQVTVSS	high polyreactivity
QVQLVESGGGLVQAGGSLRLSCAASGFIFSTYTMGWYRQAPGKERELVAAISWRGGRTYYADSVKGRFTISRDNAKNTVYLQMNSLKPEDTAVYYCADYGTIRSSTAVEPLYNHWGQGTQVTVSS	high polyreactivity
QVQLVESGGGLVQAGGSLRLSCAASGFIFSVYAMGGYRQAPGKDTELVAVISTSGGRTYYADSVKGRFTISRDNAKNTVYLQMNSLKPEDTAVYYCAADGFQYTLGNYYWGQGTQVTVSS	high polyreactivity
QVQLVESGGGLVQAGGSLRLSCAASGFIFSWYAMGWYRQAPGKERELVAAISHDGGSTYYADSVKGRFTISRDNAKNTVYLQMNSLKAEDTAVYYCAAPLRALSQRMGYWGQGTQVTVSS	high polyreactivity
QVQLVESGGGLVQAGGSLRLSCAASGFIFSYYAMGRYRQAPGKEREMVAAITWSGSSTYYADSVKGRFTISRDNAKNTVYLQMYSLIPEDNAVYSCAASSGGFRHYFYTYNYWGQGTQVTVSS	high polyreactivity
QVQLVESGGGLVQAGGSLRLSCAASGFIFSYYAMGWYRQAPGKERELVAAISRNGGRTYYADSVKGRFTISRDNAKNTVYLQMNSLKPEDTAVYYCAATTYRTSSYIRYGSPKHDDYWGQGTQVTVSS	high polyreactivity
QVQLVESGGGLVQAGGSLRLSCAASGFIFSYYAMGWYRQAPGKERELVAAITDSGGSTYYADSVKGRFTISRDNAKNTVYLQMNSLKPEDTAVYYCAATYWWAYVWAYSHVKSTNDYWGQGTQVTVSS	low polyreactivity
QVQLVESGGGLVQAGGSLRLSCAASGFIFSYYAMGWYRQAPGKERELVAAITSSGGSTYYADSVKGRFTISRDNAKNTVYLHLNSLKPEDTAVYYCNAYVRRTRDYDYWGQGTQVTVSS	high polyreactivity
QVQLVESGGGLVQAGGSLRLSCAASGFIFSYYAMGWYRQAPGKERELVAAMSSSGSRTYYADSVKGRFTISRDNAKNTVYLQMNSLKPEDTAVYYCAARGWFRGEFDYWGQGTQVTVSS	high polyreactivity
QVQLVESGGGLVQAGGSLRLSCAASGFIFSYYAMGWYRQAPGKERELVAVISWSGGSTYYADSVKGRFTISRDNAKNTVYLQMNSLKPEDTAVYYCNAGYTYNRVIWPYYYWGQGTQVTVSS	high polyreactivity
QVQLVESGGGLVQAGGSLRLSCAASGFIFSYYTMGWYRQAPGKERELVAAISRNGGSTYYADSVKGRFTISRDNAKNTVYLQMNSLKPEDTAVYYCAKRVFNYQRYDYWGQGTQVTVSS	high polyreactivity
QVQLVESGGGLVQAGGSLRLSCAASGFIFSYYTMGWYRQAPGKERELVAAISRRGGSTYYADSVKGRFTISRDNAKNTVYLQMNSLKPEDTAVYYCAAPRDWDAGDYWGQGTQVTVSS	high polyreactivity
QVQLVESGGGLVQAGGSLRLSCAASGFIFTANAMGWYRQAPGKEMELVAAISRSGGRTYYADSVKGRFTISRDNAKNTVYLQMNSLKPEDTAVYYCAAPYRSYDWYDYWGQGTQVTVSS	high polyreactivity
QVQLVESGGGLVQAGGSLRLSCAASGFIFTAYAMGWYRQAPGKERELVAGIRSGSATYYADSVKGRFTISRDNAKNTVYLQMNILKPEDTAVYYCNAEKYNFIYAYEYWGQGTQVTVSS	low polyreactivity
QVQLVESGGGLVQAGGSLRLSCAASGFIFTDNAMGWYRQAPGKERELVAAISKNGGSTYYADSVKGRFTISRDNAKNTVYLQMNSLKPEDTAVYYCNTRRKNFDKSSQVEYWGQGTQVTVSS	high polyreactivity
QVQLVESGGGLVQAGGSLRLSCAASGFIFTEYAMGWYRQAPGKEREFVAAISWSGGSTYYADSVKGRFTISRDNAKNTVYLQMNSLKPEDTAVYYCAKRSRGVKYDYWGQGTQVTVSS	high polyreactivity
QVQLVESGGGLVQAGGSLRLSCAASGFIFTFYALGWYRQAPGKEREFVASIDWGDGSTYYADSVKGRFTISRDNAKNTVYLQMNSLKPEDTAVYYCAHDYDGYVWDTEYDYWGQGTQVTVSS	low polyreactivity
QVQLVESGGGLVQAGGSLRLSCAASGFIFTFYAMGWYRQAPGKEREFVASIDWGDGSTYYADSVKGRFTISRDNAKNTVYLQMNSLKPEDSAVYYCAHDYDGYVWDTEYDYWGQGTQVTVSS	low polyreactivity
QVQLVESGGGLVQAGGSLRLSCAASGFIFTGNVMGWYRQAPGKERELVAAIRWSGGRTYYADSVKGRFTISRDNAKNTVYLQMNSLIPEDTAVYYCNALGRVQGYKPGGLDYWGQGTQVTVSS	high polyreactivity
QVQLVESGGGLVQAGGSLRLSCAASGFIFTGNVMGWYRQGPGKERELVAGITYTSGSTYYADSVKGRFTISRDNAKNTVYLQMNSLKPEDTAVYYCAAEVYVPDYFQHKFDVEYEYWGLGTQVTVSS	low polyreactivity
QVQLVESGGGLVQAGGSLRLSCAASGFIFTGYAMGWYRQAPGKERELVAAITKSGGSTYYADSVKGRFTISRDNAKNTVYLQMNSLKPEDTAVYYFNTYLWRWSKGGYLGQGTQVTVSS	high polyreactivity

Sequence	polyreactivity (PSR sort gate)
QVQLVESGGGLVQAGGSLRLSCAASGFIFTKYVMGWYRQAPGKERELVAAISLNGGRTYYADSVKGRFTISRDNAKNTVDLQMNSLKPEDTAVYYCAVDAKAVSARTYDYGYWGQGTQVTVSS	high polyreactivity
QVQLVESGGGLVQAGGSLRLSCAASGFIFTQNGMGWYRQAPGKERELVAAISWSAGGTYYADSVKGRFTISRDNANNTVYLQMNSLKQEDTAVYYCNAELYFYWNVWVGYDYWGQGTQVTVSS	low polyreactivity
QVQLVESGGGLVQAGGSLRLSCAASGFIFTQYAMGWYRQAPGKERELVAAITRSGGRTYYADSVKGRFTISRDNAKNTVYLQMNSLIPEDTAVYYCAVDTVTRTVLVYGDRNDSWGQGTQVTVSS	high polyreactivity
QVQLVESGGGLVQAGGSLRLSCAASGFIFTRYAMGWYRQAPGKERELVAAISGTGGSTYYADSVKGRFTISRDNSKNTFFLQMNSLKPEDTAVYYCAAGYFVYLKYGYWGQGTKVTVSS	high polyreactivity
QVQLVESGGGLVQAGGSLRLSCAASGFIFTTYGMGWYRQAPGKERELVAAISYRGDSTYYADSVKGRFTISRDNAKNTVYLQMNSLKPEDTAVYYCAADVTQKPYGLSHGQDAYDYWGQGTQVTVSS	low polyreactivity
QVQLVESGGGLVQAGGSLRLSCAASGFIFTYNAMGWYIQAPGKEREFVASISRSGGRTYYADSVKGRFTISRDNAKNTVYLQMNSLKPEDTAVYYCAARNAYVYGMDYWGQGTQVTVSS	low polyreactivity
QVQLVESGGGLVQAGGSLRLSCAASGFIFTYNAMGWYRQAPGKERELVASIRSTGGSTYYADSVKGRFTISRDNAKNTVYLQMNSLKPEDTAVYYCAARARGTNMYYWGQGTQVTVSS	high polyreactivity
QVQLVESGGGLVQAGGSLRLSCAASGFIFTYNTMGWDRQAPGKERELVAAISLRGGNTYYADSVKGRFTISRDNAKNTVYLQMHSLKPEDTAVYYCAALGKYRSGNYFGQGTQVTVSS	high polyreactivity
QVQLVESGGGLVQAGGSLRLSCAASGFIFTYYAMGWYRPEHGKERDLVATINWSDGSTRYADSVKGRFTISRDNAKNTDYLQMNSLKPEDTAVYYCAKDWFNRPSVEMDYWGQGTQVTVSS	low polyreactivity
QVQLVESGGGLVQAGGSLRLSCAASGFIFTYYAMGWYRQAPGKERELVAAISWDGGSTYYADSVKGRFTISRDNAKNTVYLQMNSLKPEDTAVYYCNRDLYGYVRYDYWGQGTQVTVSS	low polyreactivity
QVQLVESGGGLVQAGGSLRLSCAASGFIFVANAMGWYRQAPGKERELVAAISFSGGRTYYADSVKGRFTISRDNAKNTVYLQMNSLKPEDTAVYYCNTVSEWWAGDHPDAEFDYWGQGTQVTVSS	low polyreactivity
QVQLVESGGGLVQAGGSLRLSCAASGFIFVDNAMGWYRQAPGKERELVAAITYRGGSTYYADSVKGRFTISRDNAKNTVYLQMNSLKPEVTAVYYCNADYGDTFEYDYWGQGTQVTVSS	low polyreactivity
QVQLVESGGGLVQAGGSLRLSCAASGFIFVDYTMGWYRQAPGKERELVAAITWTGGSTYADSVKGRFTISRDNAKNTVYLQMNSLKPEDTAVYYCAAGQGPDMDYWGQGTQVTVSS	low polyreactivity
QVQLVESGGGLVQAGGSLRLSCAASGFIFVENAMGWYIQAPGKERELVASISRRGGSTYYADSVKGRFTISRDNAKNTVYLQMNSLKPEDTAVYYCAATLGRTRYNYWGQGTQVTVSS	high polyreactivity
QVQLVESGGGLVQAGGSLRLSCAASGFIFVFYAMGWYIQAPGKERELVAAITWSGGGTYYADSVKGRFTISRDNAKNTVYLQMNSLKPEDTAVYYCNTDASPYLFDYWGQGTQVTVSS	low polyreactivity
QVQLVESGGGLVQAGGSLRLSCAASGFIFVGYAMGWYRQAPGKERELVAAISYSGGRTYYADSVKGRFTISRDNAKNTVYLQMNSLKPEDTAVYYCAAQSRYGGKFYYWGQGTQVTVSS	high polyreactivity
QVQLVESGGGLVQAGGSLRLSCAASGFIFVKNAMGWYRQAPGKERELVAVISTRGGRTYYADSVKGRFTISRDNAKNTVYLQMNSMKPEDTAVYYCAAGDQYKTRRNGYGYWGQGTQVTVSS	high polyreactivity
QVQLVESGGGLVQAGGSLRLSCAASGFIFVKYAMGWYIQAPGKERELVAAITTSGTGTFYADSVKGRFTISRDNAKYTVYLQMNRLKPEDTAVYYCNALGHPGDDWGQGTQVTVSS	low polyreactivity
QVQLVESGGGLVQAGGSLRLSCAASGFIFVPYALGWYRQAPGKERELVAAISSGGSTYYADSVKGRFTISRDNAKNTVYLQMNSLKPEDTAVYYCNTRYYLYQYRYDYWGQGTQVTVSS	low polyreactivity
QVQLVESGGGLVQAGGSLRLSCAASGFIFVRNAMGLYRQAPGKEREFVAAITRSGGSTYYADSVKGRFTISRDNAKNTVYLQMNSLKPEDTAVYYCAARIHGSWSFDYWGQGTQVTVSS	low polyreactivity
